From US20110318357A1

Biological target: Shiga toxin type 2 (Stx2) (Escherichia coli) (UniProt P09385)
Assay: cell-based or functional assay

Question: monoclonal antibody 11E10 was tested. Which percent neutralization of cytotoxicity for Vero cells did it give?
Answer: The percent neutralization of cytotoxicity for Vero cells was 65%.
